# Reference: US20190359712A1 (Daiichi Sankyo, published 2019)
# B1: C3E-3007 scFv (humanized OKT3 scFv) (scFv)
# scFv: QVQLVQSGAESKKPGASVKVSCKASGYTFTRYTMHWVRQAPGQGLEWMGYINPSRGYTNYNQKFKDRVTITADKSTSTAYMELSSLRSEDTAVYYCARYYDDHYCLDYWGQGTLVTVSSGGGGSGGGGSGGGGSQIQMTQSPSSLAVSLGERATITCSASSSVSYMNWYQQKPGKAPKRWIYDTSKLASGVPDRFSGSGSGTDFTLTISSLQAEDVATYYCQQWSSNPFTFGQGTKVEIKRGASAAAGSGGDYKDDDDKGAAAHHHHHH
# B2: C3E-7035 (humanized anti-CD3 scFv) (scFv)
# scFv: GEVQLVESGGGLVQPGGSLRLSCAASGVTFNYYGMSWIRQAPGKGLEWVASITNSGGRIYYPDSVKGRFTISRENTQKTLYLQMNSLRAEDTAVYYCTLDGRDGWVAYWGQGTLVTVSSGGGGSGGGGSGGGGSMAQAVLTQPSSVSGVPGQRVTISCKRNTGNIGSNYVNWYQQLPGTAPKLLIYRDDKRPSGVPDRFSGSKSGTSASLAITGFQAEDEADYYCQSYSSGFIFGGGTKLTVLGAAAGAGGDYKDDDDKGAAAHHHHHH
# B3: C3E-7036 (humanized anti-CD3 scFv) (scFv)
# scFv: GEVQLVESGGGLVQPGGSLRLSCAASGVTFNYYGMSWIRQAPGKGLEWVASITNSGGRIYYPDSVKGRFTISRENTQKTLYLQMNSLRAEDTAVYYCTLDGRDGWVAYWGQGTLVTVSSGGGGSGGGGSGGGGSNFMLTQPSSVSGVPGQRVTISCTGNTGNIGSNYVNWYQQLPGTAPKLLIYRDDKRPSGVPDRFSGSKSGTSASLAITGFQAEDEADYYCQSYSSGFIFGGGTKLTVLGAAAGAGGDYKDDDDKGAAAHHHHHH
# Experiments:
# [1] = molecular target: T1, CD3 immobilized on a sensor chip (Example 7)-1-2); test: SPR (BIAcore T-200), CD3 immobilized, scFv injected at five concentrations; concentration giving 1/2 Rmax
# T1 construct: the text says only 'CD3 immobilized on a sensor chip'; also called human CD3
# Description: Five different concentrations of the scFv were injected into CD3 immobilized on a sensor chip. Rmax was estimated from the resulting response, and the antibody concentration that reached 1/2 thereof was defined as the dissociation constant of the scFv for CD3.
# human CD3 on human PBMC = molecular target: T2, human CD3 on human PBMC (human, UniProt P07766 23-207); test: flow cytometry on human PBMC, Penta-His Alexa Fluor 488 detection (rMFI)
# T2 construct: Native CD3 complex on T cells in PBMC; the other chains of the complex are native; also called human CD3 (PBMC)
# Description: Commercially available human PBMC (Cellular Technology Ltd. (CTL)) was adjusted to an appropriate concentration with PBS containing 5% FBS. LIVE/DEAD Fixable Near-IR Dead Cell Stain Kit (Thermo Fisher Scientific Inc.) and an anti-CD19 antibody (Beckman Coulter Inc.) were added to the cells, which were then left standing at 4° C. for 30 minutes. The cells were washed twice with PBS containing 5% FBS, then adjusted to a concentration of 1×10⁶ cells/mL with PBS containing 5% FBS, added at a concentration of 100 μL/well to a 96-well U-bottomed microplate, and centrifuged to remove a supernatant. […] The cells were washed twice with PBS containing 5% FBS. Then, Penta-His Alexa Fluor 488 (Qiagen N.V.) diluted with PBS containing 5% FBS was added at a concentration of 30 μL/well, and the plate was left standing at 4° C. for 30 minutes. The cells were washed twice with PBS containing 5% FBS and then resuspended in PBS containing 5% FBS, followed by detection using a flow cytometer (FACSCanto™ II; Becton, Dickinson and Company). The data was analyzed using Flowjo (Tree Star Inc.). The mean fluorescence intensity (MFI) of Alexa Fluor 488 in a fraction free of dead cells and CD19-positive cells was calculated. The MFI value of the scFv-unsupplemented sample was subtracted from the MFI value of the scFv-supplemented sample to calculate a relative value of MFI (rMFI).
# [2] = molecular target: T3, cynomolgus monkey CD3 on cynomolgus monkey PBMC or T cell line HSC-F (cynomolgus monkey, UniProt Q95LI5 22-198); test: flow cytometry on cynomolgus monkey PBMC
# T3 construct: whole, on cells; Native CD3 complex on monkey T cells; also called cynomolgus monkey CD3 (PBMC); cynomolgus monkey CD3 antigen
# T3 sequence (Q95LI5 22-198): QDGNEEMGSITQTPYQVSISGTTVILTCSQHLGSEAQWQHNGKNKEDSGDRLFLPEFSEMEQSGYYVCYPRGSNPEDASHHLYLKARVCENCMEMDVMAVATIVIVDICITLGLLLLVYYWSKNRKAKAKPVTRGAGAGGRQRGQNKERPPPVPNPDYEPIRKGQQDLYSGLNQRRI
Binder,Kd [1] [nM],binding result (human CD3 on human PBMC),binding result [2]
B1,400,binds,–
B2,22,binds,binds
B3,25,binds,binds
